Results as given in patent publication US20230002478A1.

Biological target: biotinylated D614G SARS-CoV-2 spike trimer (SARS-CoV-2) (UniProt P0DTC2)
Test: AlphaLISA, inhibition of ACE2-muFc / biotinylated spike complex

## anti-RBD neutralizing monoclonal antibody (human IgG1) from Acro Biosystems (SAD-S35)
  IC50: 1.84 nM
